Results published in patent US20250043302A1, “MUTATED HYDROXYPHENYLPYRUVATE DIOXYGENASE POLYPEPTIDE, AND CODING GENE AND USE THEREOF” (BEIJING DABEINONG BIOTECHNOLOGY CO., LTD., priority 2021, published 2025).
Substitutions are numbered along the chain they refer to. In names and notes the source's numbering stands.

B1: GsHPPDm-F372A-F383W-02: nucleotide sequence encoding Gossypium hirsutum HPPD with F372A+F383W; vector DBN11741 (nucleic acid)
DNA: ATGGTTCAAACAAATCAATCTGGTTCTGGGAATGATTTCAAGCTGGTTGGTTTCTCAAATTTTGTGCGTAGCAATCCCAAATCAGACCGCTTCACGGTCAAGAGATTCCACCACATTGAATTTTGGTGCACTGATGCCACTAATGTGGCGAGGAGGTTTTCATGGGGTTTAGGGATGCAGTTCGTCGCCAAGAGTGACCTCTCCACAGGAAATTTGACGCATGCAAGCTACCTGCTGCGGAGCCGCGACTTGAATTTCCTGTTTACAGCACCATATTCACCCAGTATTGCAGTTGCTCAAAACCTTTCGCCACAAAGCACTGCTTCCATACCTTCATTTGATCACTCGCTTTGTCGGTCCTTTGCTGCAACACATGGACTTGGCGTCAGAGCAATTGCCATCGAGGTGGACGACGCCGAAACTGCCTTCACCACGAGCGTGACACATGGCGCGCTCCCTTTTTGTCCACCAACACCACTAGGAGATGTGGCTACAATTGCTGAAGTTAAATTATATGGTGATGTTGTGCTCAGATATGTTTCTTACACCACAACCATCAACTCCGACCATGATTTTCTGCCTGGTTTTGAGAAGATTGAAGATACTCTATCGTATCCTTTGGATTATGGCCTGCGTCGGCTCGATCATGCTGTTGGCAACGTACCTGAATTAGGTCCTGCTGTATCTTATGTGAAATCTTTTACTGGGTTCCATGAGTTTGCAGAGTTCACCGCTGAGGATGTAGGAACAAGTGAATCTGGGCTGAACTCAGTTGTTTTGGCCAACAATGAGGAAATGGTCCTCTTACCAATGAACGAGCCGGTGTTCGGCACTAAGCGCAAATCTCAAATACAGACCTACTTGGAGCACAATGAAGGAGCTGGTGTGCAGCACCTCGCCCTCGTCTCGGAGGACATCTTCAAAACTTTAAGGGAGATGAGGAAACGATCCTTTGTGGGAGGATTTGAATTCATGCCTTCTCCGCCGCCGACATACTACAAGAAGCTCAAGCAGCGCGCGGGGGACATTTTGTCTGATGAGCAGATCAAGGAGTGTGAAGAGCTTGGGATTCTTGTTGATAGAGATGATCAAGGAACGCTTCTGCAGATAGCCACCAAGCCCGTCGGCGACCGGCCTACTATATGGATTGAGATCATCCAGAGAATTGGTTGCATGGTGAAGGATGAAGAAGGGAAACAGTACCAGAAGGGCGGCTGCGGCGGGTTTGGAAAAGGAAACTTCAGTGAGCTGTTTAAAAGTATAGAGGAGTATGAAAAGAGCTTGGAAGCAAAACAATCACAAAATCCATGA
modifications: GsHPPDm-F372A-F383W-02 Nucleotide Sequence
notes: vector DBN11741
B2: GsHPPDm-F372A-02: nucleotide sequence encoding Gossypium hirsutum HPPD with F372A; vector DBN11739 (nucleic acid)
DNA: B1 DNA with G1145T, G1146C
modifications: GsHPPDm-F372A-02 Nucleotide Sequence
notes: vector DBN11739
B3: GsHPPDm-F383W-02: nucleotide sequence encoding Gossypium hirsutum HPPD with F383W; vector DBN11740 (nucleic acid)
DNA: B1 DNA with G1111T, C1112T, C1113T
modifications: GsHPPDm-F383W-02 Nucleotide Sequence
notes: vector DBN11740

What follows are molecules tested on Arabidopsis thaliana T1 plants (assay: Mesotrione tolerance of transgenic Arabidopsis thaliana T1 plants (spray, bleached leaf area grade, damage score)). Conditions: mesotrione 52.5 g ai/ha; Arabidopsis thaliana T1 plants.
Type: in vivo
Set-up: Scores: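 damage score 0-100 computed as Σ(N×S)/(T×M)×100 over grades 0-3 with higher meaning more damage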
Method in brief: (§1)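 T1 transformants selected by glufosinate; 18-day-old plants, with empty-vector and wild-type controls, sprayed with topramezone (25–200 g ai/ha), isoxaflutole (35–280 g ai/ha) or mesotrione (52.5–420 g ai/ha), water as 0×. Bleached leaf area fraction scored at 7 DAT as grades 0–3.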

Molecule | Resistance evaluation | Scores
B1 | Moderately | 33
B2 | Poorly resistant | 54
B3 | Non-resistant | 100

Same assay, conditions: mesotrione 52.5 g ai/ha; Arabidopsis thaliana T1 plants; 16 plants

Molecule | Grade 0 (classification and statistics of the grade of pesticide damage; number of plants) | Grade 1 (classification and statistics of the grade of pesticide damage; number of plants) | Grade 2 (classification and statistics of the grade of pesticide damage; number of plants) | Grade 3 (classification and statistics of the grade of pesticide damage; number of plants)
B1 | 3 | 10 | 3 | 0
B2 | 0 | 8 | 6 | 2
B3 | 0 | 0 | 0 | 16

Same assay, conditions: mesotrione 105 g ai/ha; Arabidopsis thaliana T1 plants

Molecule | Resistance evaluation | Scores
B1 | Non-resistant | 77
B2 | Non-resistant | 100
B3 | Non-resistant | 100

Same assay, conditions: mesotrione 105 g ai/ha; Arabidopsis thaliana T1 plants; 16 plants

Molecule | Grade 0 (classification and statistics of the grade of pesticide damage; number of plants) | Grade 1 (classification and statistics of the grade of pesticide damage; number of plants) | Grade 2 (classification and statistics of the grade of pesticide damage; number of plants) | Grade 3 (classification and statistics of the grade of pesticide damage; number of plants)
B1 | 0 | 0 | 11 | 5
B2 | 0 | 0 | 0 | 16
B3 | 0 | 0 | 0 | 16

Each molecule was assayed on Arabidopsis thaliana T1 plants (assay: Topramezone tolerance of transgenic Arabidopsis thaliana T1 plants (spray, bleached leaf area grade, damage score)). Conditions: number of plants; topramezone 25 g ai/ha (1×), 7 DAT; Table 4.
Type: in vivo
Method in brief: as §1

Molecule | Classification and statistics of the grade of pesticide damage: Grade 0 | Classification and statistics of the grade of pesticide damage: Grade 1 | Classification and statistics of the grade of pesticide damage: Grade 2 | Classification and statistics of the grade of pesticide damage: Grade 3
B1 | 16 | 0 | 0 | 0
B2 | 16 | 0 | 0 | 0
B3 | 0 | 3 | 9 | 4

Same assay, conditions: number of plants; topramezone 100 g ai/ha (4×), 7 DAT; Table 4

Molecule | Classification and statistics of the grade of pesticide damage: Grade 0 | Classification and statistics of the grade of pesticide damage: Grade 1 | Classification and statistics of the grade of pesticide damage: Grade 2 | Classification and statistics of the grade of pesticide damage: Grade 3
B1 | 5 | 7 | 2 | 2
B2 | 0 | 0 | 0 | 16
B3 | 0 | 0 | 0 | 16

Same assay, conditions: pesticide damage score 0-100; topramezone 25 g ai/ha (1×), 7 DAT; Table 4

Molecule | Scores
B1 | 0
B2 | 0
B3 | 69

Same assay, conditions: pesticide damage score 0-100; topramezone 100 g ai/ha (4×), 7 DAT; Table 4

Molecule | Scores
B1 | 35
B2 | 100
B3 | 100

Same assay, conditions: topramezone 25 g ai/ha (1×), 7 DAT; Table 4

Molecule | Resistance evaluation
B1 | highly
B2 | highly
B3 | non-resistant (non-resistant plants (scores 68-100))

Same assay, conditions: topramezone 100 g ai/ha (4×), 7 DAT; Table 4

Molecule | Resistance evaluation
B1 | poorly
B2 | non-resistant (non-resistant plants (scores 68-100))
B3 | non-resistant (non-resistant plants (scores 68-100))

These molecules were tested on Arabidopsis thaliana T1 plants (assay: Isoxaflutole tolerance of transgenic Arabidopsis thaliana T1 plants (spray, bleached leaf area grade, damage score)). Conditions: isoxaflutole 35 g ai/ha (0.5x field concentration), spray, Arabidopsis thaliana T1 plants.
Type: in vivo
Set-up: Scores (pesticide damage): scale not given here
Method in brief: as §1

Molecule | Resistance evaluation | Scores (pesticide damage)
B1 | Highly | 15
B2 | Moderately | 33
B3 | Non-resistant | 73

Same assay, conditions: isoxaflutole 35 g ai/ha (0.5x field concentration), spray, Arabidopsis thaliana T1 plants, 16 plants

Molecule | Classification and statistics of the grade of pesticide damage: Grade 0 (number of plants) | Classification and statistics of the grade of pesticide damage: Grade 1 (number of plants) | Classification and statistics of the grade of pesticide damage: Grade 2 (number of plants) | Classification and statistics of the grade of pesticide damage: Grade 3 (number of plants)
B1 | 9 | 7 | 0 | 0
B2 | 3 | 10 | 3 | 0
B3 | 0 | 2 | 9 | 5

Same assay, conditions: isoxaflutole 70 g ai/ha (1x field concentration), spray, Arabidopsis thaliana T1 plants

Molecule | Resistance evaluation | Scores (pesticide damage)
B1 | Poorly | 48
B2 | Non-resistant | 100
B3 | Non-resistant | 100

Same assay, conditions: isoxaflutole 70 g ai/ha (1x field concentration), spray, Arabidopsis thaliana T1 plants, 16 plants

Molecule | Classification and statistics of the grade of pesticide damage: Grade 0 (number of plants) | Classification and statistics of the grade of pesticide damage: Grade 1 (number of plants) | Classification and statistics of the grade of pesticide damage: Grade 2 (number of plants) | Classification and statistics of the grade of pesticide damage: Grade 3 (number of plants)
B1 | 3 | 5 | 6 | 2
B2 | 0 | 0 | 0 | 16
B3 | 0 | 0 | 0 | 16
